What was measured:
[1] = biological target: T1, DNTTIP1 (TdIF1), His-tagged (human, UniProt Q9H147 1-329); assay: fluorescence anisotropy; Hill n 2.39; error = fit SE x15; Anisotropy: 15 nM DNA, 10 mM Na-PO4 pH 6.5, 150 mM KCl, 250 uM TCEP, 5% glycerol. Pull-down: 20 mM HEPES pH 7.9, 100 mM KCl, 10% glycerol, 0.05% CHAPS, poly(dIdC), oligo B, acetylated BSA, room temperature; conditions: protein: recombinant; tags: N-term 6xHis; chain copies: 2; label: fluorescein on first T of sense strand; blunt
T1 sequence: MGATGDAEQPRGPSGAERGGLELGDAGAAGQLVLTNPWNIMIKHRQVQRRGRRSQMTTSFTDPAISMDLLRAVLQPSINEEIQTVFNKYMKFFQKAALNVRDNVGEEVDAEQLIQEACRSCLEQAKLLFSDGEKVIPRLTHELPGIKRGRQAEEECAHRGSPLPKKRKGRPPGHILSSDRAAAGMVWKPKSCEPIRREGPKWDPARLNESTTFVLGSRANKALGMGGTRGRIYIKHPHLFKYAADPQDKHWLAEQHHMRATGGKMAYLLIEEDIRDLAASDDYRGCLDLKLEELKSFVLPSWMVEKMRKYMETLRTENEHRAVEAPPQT

[2] = biological target: T1, DNTTIP1 (TdIF1), His-tagged; assay: equimolar DNA; Tm 39.2 C; unit inferred, M assumed; Anisotropy: 15 nM DNA, 10 mM Na-PO4 pH 6.5, 150 mM KCl, 250 uM TCEP, 5% glycerol. Pull-down: 20 mM HEPES pH 7.9, 100 mM KCl, 10% glycerol, 0.05% CHAPS, poly(dIdC), oligo B, acetylated BSA, room temperature; conditions: protein: recombinant; tags: N-term 6xHis; chain copies: 2; label: fluorescein on first T of sense strand (anisotropy only); blunt
[3] = biological target: T1, DNTTIP1 (TdIF1), His-tagged; assay: fluorescence anisotropy; Hill n 1.63; error = fit SE x15; Anisotropy: 15 nM DNA, 10 mM Na-PO4 pH 6.5, 150 mM KCl, 250 uM TCEP, 5% glycerol. Pull-down: 20 mM HEPES pH 7.9, 100 mM KCl, 10% glycerol, 0.05% CHAPS, poly(dIdC), oligo B, acetylated BSA, room temperature; conditions: protein: recombinant; tags: N-term 6xHis; chain copies: 2; label: fluorescein on first T of sense strand (anisotropy only); blunt
[4] = biological target: T1, DNTTIP1 (TdIF1), His-tagged; assay: CD thermal denaturation; equimolar DNA; unit inferred, M assumed; Anisotropy: 15 nM DNA, 10 mM Na-PO4 pH 6.5, 150 mM KCl, 250 uM TCEP, 5% glycerol. Pull-down: 20 mM HEPES pH 7.9, 100 mM KCl, 10% glycerol, 0.05% CHAPS, poly(dIdC), oligo B, acetylated BSA, room temperature; conditions: protein: recombinant; tags: N-term 6xHis; chain copies: 2; blunt
[5] = biological target: T1, DNTTIP1 (TdIF1), His-tagged; assay: fluorescence anisotropy; Hill n 1.78; error = fit SE x15; Anisotropy: 15 nM DNA, 10 mM Na-PO4 pH 6.5, 150 mM KCl, 250 uM TCEP, 5% glycerol. Pull-down: 20 mM HEPES pH 7.9, 100 mM KCl, 10% glycerol, 0.05% CHAPS, poly(dIdC), oligo B, acetylated BSA, room temperature; conditions: protein: recombinant; tags: N-term 6xHis; chain copies: 2; label: fluorescein on first T of sense strand; blunt
[6] = biological target: T1, DNTTIP1 (TdIF1), His-tagged; assay: fluorescence anisotropy; Hill n 1.89; error = fit SE x15; Anisotropy: 15 nM DNA, 10 mM Na-PO4 pH 6.5, 150 mM KCl, 250 uM TCEP, 5% glycerol. Pull-down: 20 mM HEPES pH 7.9, 100 mM KCl, 10% glycerol, 0.05% CHAPS, poly(dIdC), oligo B, acetylated BSA, room temperature; conditions: protein: recombinant; tags: N-term 6xHis; chain copies: 2; label: fluorescein on first T of sense strand (anisotropy only); blunt
[7] = biological target: T1, DNTTIP1 (TdIF1), His-tagged; assay: equimolar DNA; Tm 32.7 to 43.5 C; unit inferred, M assumed; Anisotropy: 15 nM DNA, 10 mM Na-PO4 pH 6.5, 150 mM KCl, 250 uM TCEP, 5% glycerol. Pull-down: 20 mM HEPES pH 7.9, 100 mM KCl, 10% glycerol, 0.05% CHAPS, poly(dIdC), oligo B, acetylated BSA, room temperature; conditions: protein: recombinant; tags: N-term 6xHis; chain copies: 2; label: fluorescein on first T of sense strand (anisotropy only); blunt

B1: CATAKO_25 (dsDNA)
DNA 1: AGATGCTGAGAGCTCGCAGCTGCTT
DNA 2: AAGCAGCTGCGAGCTCTCAGCATCT
- Kd [1]: 117 ± 15.6 nM

B2: ATCC_25 (dsDNA)
DNA 1: AGATGATCCATATAAGGATATCCTT
DNA 2: AAGGATATCCTTATATGGATCATCT
- Kd [2]: ~791 nM
- Kd [3]: 137 ± 16.6 nM

B3: DNTTIP_cons (dsDNA)
DNA 1: CGCCAAATAAAAGTTGCATGGTCG
DNA 2: CGACCATGCAACTTTTATTTGGCG
- Kd [4]: ~7.38 nM

B4: Scr_25 (dsDNA)
DNA 1: AGATCAGCAGAGCTCTGGTAGCTAT
DNA 2: ATAGCTACCAGAGCTCTGCTGATCT
- Kd [5]: 156 ± 15.6 nM

B5: TASHET_25 wt (dsDNA)
DNA 1: AGATGCTGCATATAAGCAGCTGCTT
DNA 2: AAGCAGCTGCTTATATGCAGCATCT
- Kd [6]: 51.1 ± 4.2 nM
- Kd [7]: ~0.392 nM

From paper PMC11115230, “Mitotic deacetylase complex (MiDAC) recognizes the HIV-1 core promoter to control activated viral gene expression”
